{"source": "paper PMC5760745", "about": "“Nuclear, Cytosolic, and Surface-Localized Poly(A)-Binding Proteins of Plasmodium yoelii”", "key": {"PyPABP2 [1]": {"target": "T1, PyPABP2 (Plasmodium yoelii, UniProt UPI0004EF7F20 1-199)", "T1 sequence": "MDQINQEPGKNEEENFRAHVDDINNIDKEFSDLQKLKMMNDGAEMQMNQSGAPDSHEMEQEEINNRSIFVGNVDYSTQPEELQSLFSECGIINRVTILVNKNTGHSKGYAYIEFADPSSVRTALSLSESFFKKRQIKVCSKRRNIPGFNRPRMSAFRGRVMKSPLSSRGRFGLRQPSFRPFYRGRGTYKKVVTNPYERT", "experiment": "EMSA; apparent Kd; excess tRNA, 5 mM Mg2+; EMSA/FP: 10 mM Tris-Cl pH 7.5, 5 mM MgCl2, 55 mM KCl, 2 ug tRNA, 1 mM DTT, 0.5 U/ul SUPERase-In, 2.5% glycerol, RT 20 min; ITC: 10 mM HEPES pH 7.5, 100 mM KCl", "conditions": "protein: recombinant; tags: N-terminal GST (purified via GST); vector pSL0220 also encodes C-terminal 6xHis; single strand"}, "PyPABP1 [2]": {"target": "T2, PyPABP1 (Plasmodium yoelii 17XNL, UniProt V7PUC0 1-841)", "T2 sequence": "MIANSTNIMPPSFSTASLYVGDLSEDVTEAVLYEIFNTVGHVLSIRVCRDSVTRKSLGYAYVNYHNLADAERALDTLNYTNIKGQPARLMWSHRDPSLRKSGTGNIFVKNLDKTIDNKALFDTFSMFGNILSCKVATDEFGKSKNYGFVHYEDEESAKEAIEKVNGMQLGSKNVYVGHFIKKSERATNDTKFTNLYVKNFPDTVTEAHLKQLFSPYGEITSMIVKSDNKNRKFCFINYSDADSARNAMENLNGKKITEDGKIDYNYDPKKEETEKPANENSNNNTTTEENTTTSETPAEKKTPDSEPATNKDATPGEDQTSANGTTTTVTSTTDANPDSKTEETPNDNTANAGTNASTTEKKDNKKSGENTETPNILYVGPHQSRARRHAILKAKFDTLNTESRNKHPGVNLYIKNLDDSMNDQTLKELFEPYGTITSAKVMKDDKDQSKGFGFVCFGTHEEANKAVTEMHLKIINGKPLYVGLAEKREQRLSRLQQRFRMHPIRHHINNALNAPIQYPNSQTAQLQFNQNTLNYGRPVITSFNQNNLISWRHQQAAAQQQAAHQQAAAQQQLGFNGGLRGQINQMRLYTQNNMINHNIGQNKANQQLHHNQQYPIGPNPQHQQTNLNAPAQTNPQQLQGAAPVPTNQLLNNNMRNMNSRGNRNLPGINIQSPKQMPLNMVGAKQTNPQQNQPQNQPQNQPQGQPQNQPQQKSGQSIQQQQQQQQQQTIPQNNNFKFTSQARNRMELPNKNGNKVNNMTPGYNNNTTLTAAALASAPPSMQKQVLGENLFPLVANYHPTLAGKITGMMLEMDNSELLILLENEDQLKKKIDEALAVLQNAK", "experiment": "EMSA; apparent Kd; excess tRNA, 5 mM Mg2+; EMSA/FP: 10 mM Tris-Cl pH 7.5, 5 mM MgCl2, 55 mM KCl, 2 ug tRNA, 1 mM DTT, 0.5 U/ul SUPERase-In, 2.5% glycerol, RT 20 min; ITC: 10 mM HEPES pH 7.5, 100 mM KCl", "conditions": "protein: recombinant; tags: N-terminal GST (thrombin-cleavable), C-terminal 6xHis (TEV-cleavable); single strand"}, "PyPABP2 [3]": {"target": "T1, PyPABP2", "experiment": "fluorescence polarization; apparent Kd; excess tRNA, 5 mM Mg2+; EMSA/FP: 10 mM Tris-Cl pH 7.5, 5 mM MgCl2, 55 mM KCl, 2 ug tRNA, 1 mM DTT, 0.5 U/ul SUPERase-In, 2.5% glycerol, RT 20 min; ITC: 10 mM HEPES pH 7.5, 100 mM KCl", "conditions": "protein: recombinant; tags: N-terminal GST (purified via GST); vector pSL0220 also encodes C-terminal 6xHis; single strand"}, "PyPABP1 [4]": {"target": "T2, PyPABP1", "experiment": "fluorescence polarization; apparent Kd; excess tRNA, 5 mM Mg2+; EMSA/FP: 10 mM Tris-Cl pH 7.5, 5 mM MgCl2, 55 mM KCl, 2 ug tRNA, 1 mM DTT, 0.5 U/ul SUPERase-In, 2.5% glycerol, RT 20 min; ITC: 10 mM HEPES pH 7.5, 100 mM KCl", "conditions": "protein: recombinant; tags: N-terminal GST (thrombin-cleavable), C-terminal 6xHis (TEV-cleavable); single strand"}, "PyPABP1 [5]": {"target": "T2, PyPABP1", "experiment": "ITC; 5 mM Mg2+; first of two protein preparations; EMSA/FP: 10 mM Tris-Cl pH 7.5, 5 mM MgCl2, 55 mM KCl, 2 ug tRNA, 1 mM DTT, 0.5 U/ul SUPERase-In, 2.5% glycerol, RT 20 min; ITC: 10 mM HEPES pH 7.5, 100 mM KCl", "conditions": "protein: recombinant; tags: N-terminal GST (thrombin-cleavable), C-terminal 6xHis (TEV-cleavable); single strand"}, "PyPABP1 [6]": {"target": "T2, PyPABP1", "experiment": "ITC; 5 mM Mg2+; second of two protein preparations; EMSA/FP: 10 mM Tris-Cl pH 7.5, 5 mM MgCl2, 55 mM KCl, 2 ug tRNA, 1 mM DTT, 0.5 U/ul SUPERase-In, 2.5% glycerol, RT 20 min; ITC: 10 mM HEPES pH 7.5, 100 mM KCl", "conditions": "protein: recombinant; tags: N-terminal GST (thrombin-cleavable), C-terminal 6xHis (TEV-cleavable); single strand"}}, "data": [{"binder": "AAAAAAAAAAAAAAAAAAAAAAAAA (ssRNA)", "note": "[biotin-poly(A) 25-mer]", "values": [{"measurement": "Kd", "setting": "PyPABP2 [1]", "result": 108, "unit": "nM"}, {"measurement": "Kd", "setting": "PyPABP1 [2]", "result": 185, "unit": "nM"}]}, {"binder": "AAAAAAAAAAAAAAAAAAAAAAAAA (ssRNA)", "note": "[fluorescein-poly(A) 25-mer]", "values": [{"measurement": "Kd", "setting": "PyPABP2 [3]", "result": 104, "unit": "nM"}, {"measurement": "Kd", "setting": "PyPABP1 [4]", "result": 8, "unit": "nM"}]}, {"binder": "AAAAAAAAAAAAAAAAAAAAAAAAA (ssRNA)", "note": "[poly(A) 25-mer]", "values": [{"measurement": "Kd", "setting": "PyPABP1 [5]", "result": 33, "unit": "nM"}, {"measurement": "Kd", "setting": "PyPABP1 [6]", "result": 48, "unit": "nM"}]}]}
